Source: publication PMC2852416, “Modular Insulators: Genome Wide Search for Composite CTCF/Thyroid Hormone Receptor Binding Sites”

What was measured:
GST-TR (TRbeta) [1] = molecular target: T1, GST-TR (TRbeta) (human, UniProt P10828 1-461); assay: competition; mutated F2 against COMT DR4 probe; PBS pH 7.4, 5 mM MgCl2, 1 mM ZnCl2, 1 mM DTT, 0.1% NP-40, 10% glycerol, 200 ng/ul pdIdC, 25-100 ng/ul salmon sperm DNA, 20 min room temperature; 5% PAGE in TAE; details: protein: recombinant; tags: GST; 5' overhangs 4 nt
T1 sequence: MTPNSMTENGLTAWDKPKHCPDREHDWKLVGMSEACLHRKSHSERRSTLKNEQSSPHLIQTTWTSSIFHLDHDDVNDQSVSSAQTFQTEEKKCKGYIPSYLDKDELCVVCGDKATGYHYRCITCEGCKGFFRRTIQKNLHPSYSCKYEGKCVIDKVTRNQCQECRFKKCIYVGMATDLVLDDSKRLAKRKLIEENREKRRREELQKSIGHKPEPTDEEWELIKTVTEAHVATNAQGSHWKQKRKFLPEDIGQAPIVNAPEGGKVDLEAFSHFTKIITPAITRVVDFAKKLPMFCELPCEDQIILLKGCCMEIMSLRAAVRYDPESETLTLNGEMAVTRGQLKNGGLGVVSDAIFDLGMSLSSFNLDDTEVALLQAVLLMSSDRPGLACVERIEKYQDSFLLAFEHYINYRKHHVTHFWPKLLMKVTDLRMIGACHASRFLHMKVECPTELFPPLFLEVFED

GST-TR (TRbeta) [2] = molecular target: T1, GST-TR (TRbeta); assay: competition; 50-fold excess against COMT DR4 probe; PBS pH 7.4, 5 mM MgCl2, 1 mM ZnCl2, 1 mM DTT, 0.1% NP-40, 10% glycerol, 200 ng/ul pdIdC, 25-100 ng/ul salmon sperm DNA, 20 min room temperature; 5% PAGE in TAE; details: protein: recombinant; tags: GST; label: 32P; 5' overhangs 4 nt
GST-TR (TRbeta) [3] = molecular target: T1, GST-TR (TRbeta); assay: EMSA; PBS pH 7.4, 5 mM MgCl2, 1 mM ZnCl2, 1 mM DTT, 0.1% NP-40, 10% glycerol, 200 ng/ul pdIdC, 25-100 ng/ul salmon sperm DNA, 20 min room temperature; 5% PAGE in TAE; details: protein: recombinant; tags: GST; label: 32P; blunt

B1: F2mut TRE (dsDNA)
DNA 1: AGCTTTTAGTTACTTATTGGGTCCAGCTGATCCCAG
DNA 2: GATCCTGGGATCAGCTGGACCCAATAAGTAACTAAA
B1: no binding (GST-TR (TRbeta) [1]).

B2: F2 TRE (ER6) (dsDNA)
DNA 1: AGCTTTTAGTTACTTATTGACCCCAGCTGAGGTCAG
DNA 2: GATCCTGACCTCAGCTGGGGTCAATAAGTAACTAAA
B2: binds (GST-TR (TRbeta) [2]).

B3: COMT DR4 (dsDNA)
DNA 1: ACCCGAGGGCACCAGAGGGCACGAGA
DNA 2: TCTCGTGCCCTCTGGTGCCCTCGGGT
B3: binds (GST-TR (TRbeta) [3]).
